US9845340B2, “Peptides that specifically bind HGF receptor (cMet) and uses thereof” (Dyax Corp., priority 2003, dated 2017)

Legend:
cMet-Fc fusion protein = cMet-Fc fusion protein (Homo sapiens, UniProt P08581); test: Protein phage ELISA: peptide-displaying phage binding to soluble cMet-Fc versus TRAIL-Fc; details: phage isolate; cMet-Fc vs. TRAIL-Fc
Experimental: Protein phage ELISAs using peptide-displaying phage isolates from the various selection campaigns were performed to determine specificity of the peptides for cMet versus an unrelated Fc-fusion protein (TRAIL-Fc). Briefly, 384-well plates were coated overnight at 4 C with 0.5 μg/mL of cMet-Fc fusion protein or TRAIL-Fc fusion protein (background). The plates were blocked for 2 hours 37C with 3% (w/v) BSA in PBS containing 0.05% (v/v) Tween-20 (PBST). The plates were washed with PBST and 100 μL of peptide-displaying phage were added to each well. The plates were incubated for 2 hours at room temperature and washed with PBST. cMet-binding peptide-displaying phage were detected using an HRP-conjugated anti-M13 antibody.

[1] = biological target: T1, 3T3 cells that over-express human cMet (Homo sapiens, UniProt P08581); test: Whole cell ELISA of peptide-displaying phage; format: cell-based; details: phage isolate; 3T3 cells expressing human cMet vs. non-expressing 3T3 cells
T1 construct: expressed in transfected cells; host or cells: 3T3 cells
Experimental: Whole cell ELISAs were performed using 3T3 cells that over-express human cMet. […] Briefly, 96-well plates were seeded with 10^5 cells per well. The plates were centrifuged for 5 minutes at 1600 rpm to pellet the cells. The resulting cell layer was fixed with 0.1% (v/v) glutaraldehyde for 12 minutes at 37 C. […] Peptide-displaying phage also were blocked in the above solution for 1 hour at 37 C. 100 μL of blocked phage was then added to each well and the plates were incubated for 1 hour at room temperature. The plates were washed with PBST. cMet-binding peptide-displaying phage were detected using an HRP-conjugated anti-M13 antibody.

T1 sequence (P08581 25-1390): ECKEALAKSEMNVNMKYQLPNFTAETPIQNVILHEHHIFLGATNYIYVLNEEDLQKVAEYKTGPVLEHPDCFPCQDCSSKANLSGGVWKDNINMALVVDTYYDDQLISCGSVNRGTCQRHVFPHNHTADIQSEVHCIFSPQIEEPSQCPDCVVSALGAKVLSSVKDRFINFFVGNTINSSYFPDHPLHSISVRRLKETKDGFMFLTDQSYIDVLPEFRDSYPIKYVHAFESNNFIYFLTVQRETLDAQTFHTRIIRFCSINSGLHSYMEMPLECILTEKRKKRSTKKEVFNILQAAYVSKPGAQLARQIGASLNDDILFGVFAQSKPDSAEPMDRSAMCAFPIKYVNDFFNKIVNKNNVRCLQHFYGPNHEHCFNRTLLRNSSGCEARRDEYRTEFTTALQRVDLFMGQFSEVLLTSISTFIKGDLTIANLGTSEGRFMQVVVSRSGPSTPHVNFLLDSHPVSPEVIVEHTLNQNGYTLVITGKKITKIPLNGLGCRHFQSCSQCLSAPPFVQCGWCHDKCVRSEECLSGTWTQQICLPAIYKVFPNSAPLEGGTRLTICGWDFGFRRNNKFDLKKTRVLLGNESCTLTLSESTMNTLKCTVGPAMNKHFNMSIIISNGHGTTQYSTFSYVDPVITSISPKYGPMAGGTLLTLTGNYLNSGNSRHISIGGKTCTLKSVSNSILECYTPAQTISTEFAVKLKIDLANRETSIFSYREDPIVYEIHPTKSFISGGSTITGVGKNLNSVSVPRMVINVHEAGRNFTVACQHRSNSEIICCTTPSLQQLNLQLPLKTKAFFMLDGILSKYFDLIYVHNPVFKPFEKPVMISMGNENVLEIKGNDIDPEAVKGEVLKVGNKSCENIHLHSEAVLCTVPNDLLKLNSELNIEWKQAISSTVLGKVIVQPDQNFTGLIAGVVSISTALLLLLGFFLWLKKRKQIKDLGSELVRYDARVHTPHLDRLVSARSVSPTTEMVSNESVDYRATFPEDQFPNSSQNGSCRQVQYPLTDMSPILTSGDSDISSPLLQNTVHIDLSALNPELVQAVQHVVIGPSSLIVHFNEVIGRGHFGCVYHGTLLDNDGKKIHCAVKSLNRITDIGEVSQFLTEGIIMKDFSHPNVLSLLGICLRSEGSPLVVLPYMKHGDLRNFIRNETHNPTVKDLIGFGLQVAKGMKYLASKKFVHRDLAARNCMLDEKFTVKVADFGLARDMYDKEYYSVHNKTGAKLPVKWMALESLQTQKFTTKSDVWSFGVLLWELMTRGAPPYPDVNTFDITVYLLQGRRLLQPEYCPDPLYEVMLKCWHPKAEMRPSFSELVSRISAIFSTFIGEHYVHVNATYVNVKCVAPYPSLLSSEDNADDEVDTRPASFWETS
Sequence of cMet-Fc fusion protein (P08581 25-307 limits assumed): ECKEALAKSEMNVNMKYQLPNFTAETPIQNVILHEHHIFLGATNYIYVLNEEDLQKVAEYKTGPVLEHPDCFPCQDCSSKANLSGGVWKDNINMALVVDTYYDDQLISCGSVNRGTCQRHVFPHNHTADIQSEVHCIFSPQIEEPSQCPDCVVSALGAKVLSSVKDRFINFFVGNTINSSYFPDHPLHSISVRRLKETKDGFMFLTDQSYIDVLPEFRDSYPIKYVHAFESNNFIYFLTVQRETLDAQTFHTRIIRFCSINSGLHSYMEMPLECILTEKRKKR
Sequence of cMet-Fc fusion protein (P08581 with tags, fused parts or gaps limits assumed): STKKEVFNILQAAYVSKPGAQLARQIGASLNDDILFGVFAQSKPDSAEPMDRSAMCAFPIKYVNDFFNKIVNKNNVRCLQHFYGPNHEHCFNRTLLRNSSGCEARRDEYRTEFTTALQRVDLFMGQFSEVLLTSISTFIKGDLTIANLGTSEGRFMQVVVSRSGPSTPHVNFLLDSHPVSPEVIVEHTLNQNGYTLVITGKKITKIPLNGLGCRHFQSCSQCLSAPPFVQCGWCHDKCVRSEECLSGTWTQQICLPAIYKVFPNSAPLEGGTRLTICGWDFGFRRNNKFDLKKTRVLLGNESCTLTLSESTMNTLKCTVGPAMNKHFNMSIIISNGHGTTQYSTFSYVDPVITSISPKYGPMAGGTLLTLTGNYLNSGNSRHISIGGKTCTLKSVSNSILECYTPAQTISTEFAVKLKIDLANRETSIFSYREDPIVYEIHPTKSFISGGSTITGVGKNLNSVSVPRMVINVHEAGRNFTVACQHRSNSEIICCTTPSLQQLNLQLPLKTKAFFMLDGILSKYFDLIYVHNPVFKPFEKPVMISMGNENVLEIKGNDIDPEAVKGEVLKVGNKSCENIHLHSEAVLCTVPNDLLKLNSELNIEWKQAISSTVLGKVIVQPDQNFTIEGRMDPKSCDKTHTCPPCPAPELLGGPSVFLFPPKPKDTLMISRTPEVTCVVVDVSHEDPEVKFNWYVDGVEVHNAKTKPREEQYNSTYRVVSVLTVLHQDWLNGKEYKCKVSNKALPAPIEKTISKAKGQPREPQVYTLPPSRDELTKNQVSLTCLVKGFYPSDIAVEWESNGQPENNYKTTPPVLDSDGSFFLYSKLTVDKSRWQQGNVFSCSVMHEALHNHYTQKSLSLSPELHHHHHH

Row | Protein ELISA (cMet-Fc fusion protein) [fold over background] | WC ELISA [1] [fold over background] | Compound
1 | 10.2 | 1.40 | AGHYWCAGPPTFICMGPGT (Synthetically generated cMet-binding peptide sequence) [SEQ ID NO: 062]
2 | 4.5 | 1.27 | CC[C@H](C)[C@H](NC(=O)[C@H](Cc1c[nH]cn1)NC(=O)[C@H](CC(C)C)NC(=O)[C@@H](NC(=O)[C@H](CCSC)NC(=O)[C@H](CCSC)NC(=O)[C@H](CCC(N)=O)NC(=O)CNC(=O)[C@H](Cc1ccc(O)cc1)NC(=O)[C@H](CCC(N)=O)NC(=O)[C@H](Cc1c[nH]cn1)NC(=O)[C@H](CCC(N)=O)NC(=O)[C@H](C)NC(C)=O)C(C)C)C(=O)N[C@@H](CCC(N)=O)C(=O)N[C@@H](Cc1ccc(O)cc1)C(=O)N[C@@H](CC(=O)O)C(=O)N[C@@H](CCSC)C(=O)NCC(=O)N[C@@H](CCC(=O)O)C(=O)N[C@@H](Cc1ccccc1)C(=O)N[C@H](C(=O)N1CCC[C@H]1C(=O)NCC(=O)NCC(=O)NCC(=O)N[C@@H](CCCCNC(=O)c1ccc2c(c1)C(=O)OC21c2ccc(O)cc2Oc2cc(O)ccc21)C(N)=O)[C@@H](C)CC [SEQ ID NO: 462]
3 | 4.4 | 1.37 | CC[C@H](C)[C@H](NC(=O)[C@H](CC(C)C)NC(=O)[C@H](CCCCN)NC(=O)[C@H](CCC(=O)O)NC(=O)[C@@H](NC(=O)[C@@H](NC(=O)[C@@H](NC(=O)[C@H](C)NC(=O)[C@H](CO)NC(=O)[C@H](CC(C)C)NC(=O)[C@H](Cc1c[nH]c2ccccc12)NC(=O)[C@H](CC(=O)O)NC(=O)[C@@H]1CCCN1C(=O)[C@@H](NC(=O)[C@H](CCC(N)=O)NC(=O)[C@H](C)NC(C)=O)C(C)C)C(C)C)C(C)C)[C@@H](C)CC)C(=O)N[C@@H](CCC(=O)O)C(=O)N[C@@H](Cc1ccc(O)cc1)C(=O)NCC(=O)N[C@@H](CCSC)C(=O)N[C@@H](CCSC)C(=O)N[C@H](C(=O)NCC(=O)NCC(=O)NCC(=O)N[C@@H](CCCCNC(=O)c1ccc2c(c1)C(=O)OC21c2ccc(O)cc2Oc2cc(O)ccc21)C(N)=O)C(C)C [SEQ ID NO: 464]
4 | 3.4 | 1.27 | GSMLMCELWWCRFLAP (Synthetically generated cMet-binding peptide sequence) [SEQ ID NO: 004]
5 | 3.3 | 1.37 | CC[C@H](C)[C@H](NC(=O)[C@@H](NC(=O)[C@H](CCC(=O)O)NC(=O)CNC(=O)[C@H](Cc1c[nH]c2ccccc12)NC(=O)[C@H](Cc1c[nH]cn1)NC(=O)[C@@H](NC(=O)[C@H](CC(C)C)NC(=O)CNC(=O)[C@H](CC(=O)O)NC(=O)[C@H](Cc1c[nH]cn1)NC(=O)[C@@H]1CCCN1C(=O)[C@H](Cc1c[nH]c2ccccc12)NC(=O)[C@H](CCC(N)=O)NC(=O)[C@H](C)NC(C)=O)C(C)C)C(C)C)C(=O)N[C@@H](CCSC)C(=O)N[C@@H](CC(C)C)C(=O)N[C@@H](CCCNC(=N)N)C(=O)N[C@@H](Cc1ccccc1)C(=O)NCC(=O)NCC(=O)NCC(=O)N[C@@H](CCCCNC(=O)c1ccc2c(c1)C(=O)OC21c2ccc(O)cc2Oc2cc(O)ccc21)C(N)=O [SEQ ID NO: 479]
6 | 17.1 | 1.27 | AGSYWCSGPPTFMCRYEGT (Synthetically generated cMet-binding peptide sequence) [SEQ ID NO: 085]
7 | 4.7 | 1.40 | CC[C@H](C)[C@H](NC(=O)[C@H](Cc1c[nH]c2ccccc12)NC(=O)[C@H](CC(N)=O)NC(=O)CNC(=O)[C@H](C)NC(C)=O)C(=O)N[C@H]1CSSC[C@@H](C(=O)N[C@@H](Cc2c[nH]c3ccccc23)C(=O)N[C@@H](Cc2ccc(O)cc2)C(=O)N[C@@H](Cc2c[nH]cn2)C(=O)NCC(=O)N[C@H](C(=O)NCC(=O)NCC(=O)NCC(=O)N[C@@H](CCCCNC(=O)c2ccc3c(c2)C(=O)OC32c3ccc(O)cc3Oc3cc(O)ccc32)C(N)=O)[C@@H](C)O)NC(=O)CNC(=O)[C@H](Cc2ccccc2)NC(=O)[C@H](CO)NC(=O)[C@@H]2CCCN2C(=O)[C@@H]2CCCN2C(=O)CNC(=O)[C@H]([C@@H](C)O)NC1=O [SEQ ID NO: 078]
8 | 19.5 | 1.23 | AGPWKCTGPPTFSCIQFGT (Synthetically generated cMet-binding peptide sequence) [SEQ ID NO: 090]
9 | 3.4 | 1.40 | GSQQICDRKEYRFQACLSDAP (Synthetically generated cMet-binding peptide sequence) [SEQ ID NO: 371]
10 | 3.0 | 1.37 | AQWNWDMGFMWTTDSAQVQPSM (Synthetically generated cMet-binding peptide sequence) [SEQ ID NO: 489]
11 | 3.2 | 1.27 | CC(=O)N[C@@H](C)C(=O)NCC(=O)N[C@@H](Cc1c[nH]cn1)C(=O)N[C@@H](C)C(=O)N[C@@H](Cc1c[nH]c2ccccc12)C(=O)N[C@H]1CSSC[C@@H](C(=O)N[C@@H](Cc2c[nH]c3ccccc23)C(=O)N2CCC[C@H]2C(=O)N2CCC[C@H]2C(=O)NCC(=O)N[C@H](C(=O)NCC(=O)NCC(=O)NCC(=O)N[C@@H](CCCCNC(=O)c2ccc3c(c2)C(=O)OC32c3ccc(O)cc3Oc3cc(O)ccc32)C(N)=O)[C@@H](C)O)NC(=O)[C@H](CCC(=O)O)NC(=O)[C@H](Cc2ccccc2)NC(=O)[C@H](CCCNC(=N)N)NC(=O)[C@@H]2CCCN2C(=O)[C@@H]2CCCN2C(=O)CNC(=O)[C@H](CO)NC1=O [SEQ ID NO: 061]
12 | 3.1 | 1.20 | AQSDHDHAHWGVKHWPFRRYQ (Synthetically generated cMet-binding peptide sequence) [SEQ ID NO: 482]
13 | 8.0 | 1.47 | CC(=O)N[C@@H](C)C(=O)NCC(=O)NCC(=O)N[C@@H](Cc1c[nH]c2ccccc12)C(=O)N[C@@H](CCC(=O)O)C(=O)N[C@H]1CSSC[C@@H](C(=O)NCC(=O)N[C@@H](Cc2ccc(O)cc2)C(=O)N[C@@H](Cc2ccc(O)cc2)C(=O)NCC(=O)N[C@H](C(=O)NCC(=O)NCC(=O)NCC(=O)N[C@@H](CCCCNC(=O)c2ccc3c(c2)C(=O)OC32c3ccc(O)cc3Oc3cc(O)ccc32)C(N)=O)[C@@H](C)O)NC(=O)[C@H](CCC(N)=O)NC(=O)[C@H](Cc2ccccc2)NC(=O)[C@H](Cc2c[nH]c3ccccc23)NC(=O)[C@@H]2CCCN2C(=O)[C@@H]2CCCN2C(=O)CNC(=O)[C@H]([C@@H](C)O)NC1=O [SEQ ID NO: 067]
14 | 4.3 | 1.33 | AGLYLCDLSIMYCFFQGT (Synthetically generated cMet-binding peptide sequence) [SEQ ID NO: 015]
15 | 4.7 | 1.30 | GDGFLCRWENGWCEFWDP (Synthetically generated cMet-binding peptide sequence) [SEQ ID NO: 047]
16 | 3.2 | 1.30 | GSSHLCNPEFCHFTAP (Synthetically generated cMet-binding peptide sequence) [SEQ ID NO: 003]
17 | 12.3 | 1.23 | AGFVNCKGPPTFECILTGT (Synthetically generated cMet-binding peptide sequence) [SEQ ID NO: 057]
18 | 16.1 | 1.27 | CC[C@H](C)[C@@H]1NC(=O)[C@H](Cc2ccc(O)cc2)NC(=O)[C@H]([C@@H](C)O)NC(=O)[C@H](CCC(=O)O)NC(=O)[C@H](CC(C)C)NC(=O)[C@H](CC(=O)O)NC(=O)[C@H](Cc2ccccc2)NC(=O)[C@H](CC(=O)O)NC(=O)[C@@H](NC(=O)[C@H](Cc2ccc(O)cc2)NC(=O)[C@H](CC(=O)O)NC(=O)[C@H](Cc2ccc(O)cc2)NC(=O)[C@H](CC(=O)O)NC(=O)CNC(C)=O)CSSC[C@@H](C(=O)N[C@@H](Cc2c[nH]cn2)C(=O)N[C@@H](CO)C(=O)N[C@@H](Cc2ccc(O)cc2)C(=O)N[C@@H](CC(=O)O)C(=O)N2CCC[C@H]2C(=O)NCC(=O)NCC(=O)NCC(=O)N[C@@H](CCCCNC(=O)c2ccc3c(c2)C(=O)OC32c3ccc(O)cc3Oc3cc(O)ccc32)C(N)=O)NC(=O)[C@H](CCC(=O)O)NC(=O)[C@@H]2CCCN2C1=O [SEQ ID NO: 390]
